Reference: the supplement of paper PMC10567573

B1: TAF7L (parent)
chain: PDVENEVKRLLRSDAEAVSTRWEV

Variants of: B1
Experiment: protein stability index of a GFP-peptide fusion (GPS, HEK-293T) (PSI 1-6); higher = more stable
Conditions: c terminus: a fixed tail appended
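Further: lentivirally expressed fusions sorted by FACS into six bins by GFP to DsRed ratio, PSI derived from sequencing read proportions per bin multiplied by bin number.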

Variant | protein stability index
PDVDNEVKRLLRSDAEAVSTRWEV [E4D] | 2.19
PDVNNEVKRLLRSDAEAVSTRWEV [E4N] | 3.05
PDVWNEVKRLLRSDAEAVSTRWEV [E4W] | 1.93
PDVGNEVKRLLRSDAEAVSTRWEV [E4G] | 2.92
PDVYNEVKRLLRSDAEAVSTRWEV [E4Y] | 3.14
PDVMNEVKRLLRSDAEAVSTRWEV [E4M] | 1.69
PDVTNEVKRLLRSDAEAVSTRWEV [E4T] | 3.17
TDVENEVKRLLRSDAEAVSTRWEV [P1T] | 3.29
SDVENEVKRLLRSDAEAVSTRWEV [P1S] | 4.05
ADVENEVKRLLRSDAEAVSTRWEV [P1A] | 2.92
EDVENEVKRLLRSDAEAVSTRWEV [P1E] | 4.44
KDVENEVKRLLRSDAEAVSTRWEV [P1K] | 3.27
NDVENEVKRLLRSDAEAVSTRWEV [P1N] | 3.43
DDVENEVKRLLRSDAEAVSTRWEV [P1D] | 2.96
HDVENEVKRLLRSDAEAVSTRWEV [P1H] | 2.27
RDVENEVKRLLRSDAEAVSTRWEV [P1R] | 2.36
YDVENEVKRLLRSDAEAVSTRWEV [P1Y] | 3
LDVENEVKRLLRSDAEAVSTRWEV [P1L] | 3.52
IDVENEVKRLLRSDAEAVSTRWEV [P1I] | 2.79
PDVENEVNRLLRSDAEAVSTRWEV [K8N] | 3.08
PDVENEVERLLRSDAEAVSTRWEV [K8E] | 3.6
PDVENEVMRLLRSDAEAVSTRWEV [K8M] | 2.78
PDVENEVCRLLRSDAEAVSTRWEV [K8C] | 3.23
PDVENEVIRLLRSDAEAVSTRWEV [K8I] | 2.51

Variant | protein stability index
PDVENEVQRLLRSDAEAVSTRWEV [K8Q] | 3.34
PDVENEVPRLLRSDAEAVSTRWEV [K8P] | 4.16
PDVENEVFRLLRSDAEAVSTRWEV [K8F] | 2.2
PDVENEVYRLLRSDAEAVSTRWEV [K8Y] | 2.23
PDVENEVVRLLRSDAEAVSTRWEV [K8V] | 3.44
PDVENEVWRLLRSDAEAVSTRWEV [K8W] | 2.19
PDVENEVHRLLRSDAEAVSTRWEV [K8H] | 4.25
PDVENEVKRQLRSDAEAVSTRWEV [L10Q] | 3.25
PDVENEVKRHLRSDAEAVSTRWEV [L10H] | 3.82
PDVENEVKRKLRSDAEAVSTRWEV [L10K] | 3.8
PDVENEVKRWLRSDAEAVSTRWEV [L10W] | 2.86
PDVENEVKRFLRSDAEAVSTRWEV [L10F] | 3.42
PDVENEVKRTLRSDAEAVSTRWEV [L10T] | 4.36
PDVENEVKGLLRSDAEAVSTRWEV [R9G] | 3.57
PDVENEVKTLLRSDAEAVSTRWEV [R9T] | 3.44
PDVENEVKDLLRSDAEAVSTRWEV [R9D] | 4.41
PDVENEVKNLLRSDAEAVSTRWEV [R9N] | 3.66
PDVENEVKCLLRSDAEAVSTRWEV [R9C] | 3.39
PDVENEVKPLLRSDAEAVSTRWEV [R9P] | 4.17
PDVENEVKYLLRSDAEAVSTRWEV [R9Y] | 2.41
PDVENEVKKLLRSDAEAVSTRWEV [R9K] | 4.02
PDVENEVKMLLRSDAEAVSTRWEV [R9M] | 3.96
PDVENEVKQLLRSDAEAVSTRWEV [R9Q] | 3.83
PDVENEVKHLLRSDAEAVSTRWEV [R9H] | 4.05

Variant | protein stability index
PDVENEVKFLLRSDAEAVSTRWEV [R9F] | 2.69
PDVENEVKLLLRSDAEAVSTRWEV [R9L] | 3.29
PDGENEVKRLLRSDAEAVSTRWEV [V3G] | 3.05
PDPENEVKRLLRSDAEAVSTRWEV [V3P] | 4.43
PDEENEVKRLLRSDAEAVSTRWEV [V3E] | 4.74
PDDENEVKRLLRSDAEAVSTRWEV [V3D] | 4.13
PDQENEVKRLLRSDAEAVSTRWEV [V3Q] | 3.79
PDCENEVKRLLRSDAEAVSTRWEV [V3C] | 3.75
PDKENEVKRLLRSDAEAVSTRWEV [V3K] | 4.4
PDHENEVKRLLRSDAEAVSTRWEV [V3H] | 3.86
PDSENEVKRLLRSDAEAVSTRWEV [V3S] | 3.13
PDNENEVKRLLRSDAEAVSTRWEV [V3N] | 3.09
PDMENEVKRLLRSDAEAVSTRWEV [V3M] | 3.5
PDFENEVKRLLRSDAEAVSTRWEV [V3F] | 3.32
PDTENEVKRLLRSDAEAVSTRWEV [V3T] | 3.99
PDVELEVKRLLRSDAEAVSTRWEV [N5L] | 2.82
PDVEQEVKRLLRSDAEAVSTRWEV [N5Q] | 3.07
PDVEPEVKRLLRSDAEAVSTRWEV [N5P] | 3.57
PDVEMEVKRLLRSDAEAVSTRWEV [N5M] | 2.81
PDVEYEVKRLLRSDAEAVSTRWEV [N5Y] | 3.1
PDVEKEVKRLLRSDAEAVSTRWEV [N5K] | 3.21
PDVEWEVKRLLRSDAEAVSTRWEV [N5W] | 2.95
PDVESEVKRLLRSDAEAVSTRWEV [N5S] | 2.03
PDVEAEVKRLLRSDAEAVSTRWEV [N5A] | 3.79

Variant | protein stability index
PDVEFEVKRLLRSDAEAVSTRWEV [N5F] | 2.62
PDVENECKRLLRSDAEAVSTRWEV [V7C] | 3.07
PDVENEGKRLLRSDAEAVSTRWEV [V7G] | 4.2
PDVENESKRLLRSDAEAVSTRWEV [V7S] | 3.56
PDVENEIKRLLRSDAEAVSTRWEV [V7I] | 2.73
PDVENETKRLLRSDAEAVSTRWEV [V7T] | 4.13
PDVENEMKRLLRSDAEAVSTRWEV [V7M] | 3.47
PDVENEYKRLLRSDAEAVSTRWEV [V7Y] | 3.31
PDVENEWKRLLRSDAEAVSTRWEV [V7W] | 3.13
PDVENEKKRLLRSDAEAVSTRWEV [V7K] | 4.23
PDVENEQKRLLRSDAEAVSTRWEV [V7Q] | 3.68
PDVENENKRLLRSDAEAVSTRWEV [V7N] | 2.94
PDVENEHKRLLRSDAEAVSTRWEV [V7H] | 4.06
PDVENEPKRLLRSDAEAVSTRWEV [V7P] | 4.57
PDVENCVKRLLRSDAEAVSTRWEV [E6C] | 2.9
PDVENSVKRLLRSDAEAVSTRWEV [E6S] | 3.21
PDVENHVKRLLRSDAEAVSTRWEV [E6H] | 2.9
PDVENRVKRLLRSDAEAVSTRWEV [E6R] | 3.65
PDVENNVKRLLRSDAEAVSTRWEV [E6N] | 3.12
PDVENPVKRLLRSDAEAVSTRWEV [E6P] | 4.02
PDVENGVKRLLRSDAEAVSTRWEV [E6G] | 3.25
PDVENMVKRLLRSDAEAVSTRWEV [E6M] | 2.05
PDVENKVKRLLRSDAEAVSTRWEV [E6K] | 3.17
